Assay results: patent publication US5990094A, “Inhibitors of sorotonin N-acetyltransferase” (The Rockefeller University, priority 1998, dated 1999)

Legend:
Experiment in all cases: purified protein, by the assay type
[1] = substrate: NCCc1c[nH]c2ccc(O)cc12
[2] = substrate: CC(=O)SCCNC(=O)CCNC(=O)[C@H](O)C(C)(C)COP(=O)(O)OP(=O)(O)OC[C@H]1O[C@@H](n2cnc3c(N)ncnc32)[C@H](O)[C@@H]1OP(=O)(O)O
[3] = substrate: NCCc1c[nH]c2ccccc12
[4] = substrate: CNCCc1c[nH]c2ccccc12; details: other: Table 1, tryptamine analogs
[5] = substrate: CC(N)Cc1c[nH]c2ccccc12; details: other: Table 1, tryptamine analogs
[6] = other: 1 mM (near saturating) concentration of the fixed substrate, GST-AANAT
[7] = other: ionic strength I~0.1, GST-AANAT
[8] = other: Table 1, tryptamine analogs

B1: GST-AANAT fusion (Ovis aries) (protein)
chain: MSTPSVHCLKPSPLHLPSGIPGSPGRQRRHTLPANEFRCLTPEDAAGVFEIEREAFISVSGNCPLNLDEVQHFLTLCPELSLGWFVEGRLVAFIIGSLWDEERLTQESLALHRPRGHSAHLHALAVHRSFRQQGKGSVLLWRYLHHVGAQPAVRRAVLMCEDALVPFYQRFGFHPAGPCAIVVGSLTFTEMHCSLRGHAALRRNSDR
Km [1, 6]: 241 µM | Km [2, 6]: 289 µM | Km [2, 7]: 100 µM | Km [3, 7]: 100 µM

B2: AANAT (Ovis aries) (protein)
chain: B1 chain
Km [4]: 3800 µM | Km [1, 8]: 240 µM | Km [5]: 2700 µM | Km [3, 8]: 170 µM

B3: unmodified AANAT (Ovis aries) (protein)
chain: B1 chain
Km ([2]; other: 1 mM (near saturating) concentration of the fixed substrate, AANAT): 178 µM
